Data published in article PMC6386705.
Where two headings read alike, the source gives them in different places.

Assays:
HuR RRM3 [1] = molecular target: T1, HuR RRM3 (human, UniProt Q15717 241-326); test: ITC
HuR RRM3 [2] = molecular target: T1, HuR RRM3; test: NMR
HuR RRM3 [3] = molecular target: T1, HuR RRM3; test: NMR; remark: listed apart in the source
HuR RRM3 [4] = molecular target: T1, HuR RRM3; test: ITC; remark: listed apart in the source
HuR RRM3 [5] = molecular target: T1, HuR RRM3; test: NMR; remark: listed apart in the source
HuR RRM3 [6] = molecular target: T1, HuR RRM3; test: ITC; remark: listed apart in the source
HuR RRM3 W261E [7] = molecular target: T2, HuR RRM3 W261E (human, UniProt Q15717 241-326, W261E); test: ITC
HuR RRM3 W261E [8] = molecular target: T2, HuR RRM3 W261E; test: NMR
HuR RRM3 FY = HuR RRM3 FY (human, UniProt Q15717 241-326, F247A;Y249A); test: NMR
HuR RRM3 [9] = molecular target: T1, HuR RRM3; test: ITC; remark: listed apart in the source
HuR RRM12 = HuR RRM12 (human, UniProt Q15717 2-189); test: ITC
HuR RRM3 [10] = molecular target: T1, HuR RRM3; test: ITC; remark: listed apart in the source

T1 sequence (Q15717 241-326): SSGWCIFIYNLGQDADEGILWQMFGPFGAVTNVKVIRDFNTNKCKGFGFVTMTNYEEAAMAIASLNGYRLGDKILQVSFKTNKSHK
T2 sequence (Q15717 241-326 W261E): as the sequence (Q15717 241-326) above, with W21E counted along it
HuR RRM3 FY, sequence (Q15717 241-326 F247A/Y249A): as the sequence (Q15717 241-326) above, with F7A, Y9A counted along it
HuR RRM12, sequence (Q15717 2-189): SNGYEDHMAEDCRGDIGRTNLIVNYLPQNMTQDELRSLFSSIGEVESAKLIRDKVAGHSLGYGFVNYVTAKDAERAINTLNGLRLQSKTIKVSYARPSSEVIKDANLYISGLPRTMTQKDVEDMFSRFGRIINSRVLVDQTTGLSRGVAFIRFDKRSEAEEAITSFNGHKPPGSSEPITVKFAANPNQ

Binder: UUUAUU (ssRNA)
- Kd (HuR RRM3 [1]): 5.6 ± 0.4 µM

Binder: AUUAU (ssRNA)
- binding result (HuR RRM3 [2]): binds

Binder: UUUUU (ssRNA)
- binding result (HuR RRM3 [3]): binds

Binder: AUUUUU (ssRNA)
- Kd (HuR RRM3 [4]): 4.03 ± 0.25 µM

Binder: AUUUU (ssRNA)
- binding result (HuR RRM3 [5]): binds

Binder: UUUUUU (ssRNA)
- Kd (HuR RRM3 [6]): 3.58 ± 0.21 µM
- binding result (HuR RRM3 W261E [7]): binds

Binder: UUAUU (ssRNA)
- binding result (HuR RRM3 [5]): binds

Binder: AUUUUUAUUUU (ssRNA) [c-fos ARE 11-mer]
- binding result (HuR RRM3 W261E [8]): binds
- binding result (HuR RRM3 FY): no binding
- Kd (HuR RRM3 [9]): 0.65 µM
- Kd (HuR RRM12): 0.14 µM

Binder: UUUUA (ssRNA)
- binding result (HuR RRM3 [5]): binds

Binder: AUUAUU (ssRNA)
- Kd (HuR RRM3 [10]): 5.75 ± 0.27 µM
